Values of other authors as cited in article PMC4194041.
pKd: −log10 of the molar value.

Molecular target: AP180 fragment with two D(L/I)(L/F) motifs (UniProt Q61548)
Test: NMR

UniProt Q61548, sequence (Q61548 623-680): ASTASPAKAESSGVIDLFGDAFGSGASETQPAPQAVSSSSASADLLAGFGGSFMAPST

pKd: 3.60
Substance: Clathrin heavy chain TD (from UniProt P11442)
